Laboratory results reported in patent US20260049140A1 (JANUX THERAPEUTICS, published 2026).
Like-named read-outs stand apart in the source and are kept apart here. Ends that are not written are not given here.

B1: Peptide-4 (peptide)
peptide: DWCWYSPDNDGLCD
modifications: cysteine pairing not given here; also: biotinylated when captured in binding ELISA
notes: also called 1446
B2: Peptide-5 (peptide)
peptide: SECLVDLQSDPCYW
modifications: cysteine pairing not given here; also: biotinylated when captured in binding ELISA
notes: also called 1454
B3: TCE-30 (bispecific antibody)
light: DIQLTQSPSSLSASVGDRVSITCKASQDVSIAVAWYQQKPGKAPKLLIYSASYRYTGVPDRFSGSGSGTDFTLTISSLQPEDFAVYYCQQHYITPLTFGAGTKVEIKRTVAAPSVFIFPPSDEQLKSGTASVVCLLNNFYPREAKVQWKVDNALQSGNSQESVTEQDSKDSTYSLSSTLTLSKADYEKHKVYACEVTHQGLSSPVTKSFNRGEC
heavy: not shown
notes: anti-CD3 scFv H101A; anti-TROP2 Fab F108A
B4: TCE-29 (bispecific antibody)
light: B3 light
heavy: not shown
notes: anti-CD3 scFv wt; anti-TROP2 Fab F108A
B5: TCE-36 (bispecific antibody)
light chain (anti-TROP2 LC wt): B3 light
heavy chain (anti-CD3 scFv H101A fused to anti-TROP2 D109A Fab HC): not shown
notes: not in the list MOLECULES; also called TCE-36 (anti-CD3 scFv H101A; anti-TROP2 (D109A) HC)
B6: TCE-32 (anti-CD3 scFv F240A; anti-TROP2 (F108A) HC) (bispecific antibody)
light: B3 light
heavy: not shown
notes: scFv-Fab; the entry already carries the mutations
B7: TCE-32 (bispecific antibody)
light: B3 light
heavy: not shown
notes: anti-CD3 scFv F240A; anti-TROP2 Fab F108A
B8: TCE-34 (bispecific antibody)
light: B3 light
heavy: not shown
notes: anti-CD3 scFv N30Q, I109V, G172A, V231A; anti-TROP2 Fab F108A
B9: TCE-31 (bispecific antibody)
light: B3 light
heavy: not shown
notes: anti-CD3 scFv F104A; anti-TROP2 Fab F108A
B10: TCE-31 (anti-CD3 scFv F104A; anti-TROP2 (F108A) HC) (bispecific antibody)
light: B3 light
heavy: not shown
notes: as for B6
B11: TCE-33 (anti-CD3 scFv, several mutations; anti-TROP2 (F108A) HC) (bispecific antibody)
light: B3 light
heavy: EVQLVESGGGLVQPGGSLKLSCAASGFTFNKYAMNWVRQASGKGLEWVGRIRSKYNNYATYYADSVKDRFTISRDDSKNTAYLQMNSLKTEDTAVYYCVRHGNFGNSYISYWAYWGQGTLVTVSSGGGGSGGGGSGGGGSQTVVTQEPSFSVSPGGTVTLTCRSSTGAVTSGNYANWVQQTPGQAPRGLIGGTKFLAPGVPDRFSGSILGNKAALTITGAQADDESDYYCVLWYSNRWVFGGGTKLTVLGGGGSQVQLQQSGSELKKPGASVKVSCKASGYTFTNYGMNWVKQAPGQGLKWMGWINTYTGEPTYTDDFKGRFAFSLDTSVSTAYLQISSLKADDTAVYFCARGGFGSSYWYADVWGQGSLVTVSSASTKGPSVFPLAPSSKSTSGGTAALGCLVKDYFPEPVTVSWNSGALTSGVHTFPAVLQSSGLYSLSSVVTVPSSSLGTQTYICNVNHKPSNTKVDKKVEPKSC
notes: as for B6
B12: TCE-26 (anti-CD3 scFv F240A; anti-TROP2 HC wt) (bispecific antibody)
light: B3 light
heavy: not shown
notes: scFv-Fab; the entry already carries the mutation; also called 3098
B13: TCE-37 (bispecific antibody)
light: B3 light
heavy: not shown
notes: anti-CD3 scFv F104A; anti-TROP2 Fab D109A
B14: TCE-38 (bispecific antibody)
light chain (anti-TROP2 LC wt): B3 light
heavy chain (anti-CD3 scFv F240A fused to anti-TROP2 D109A Fab HC): not shown
notes: not in the list MOLECULES; also called anti-TROP2 (D109A) HC)
B15: TCE-34 (anti-CD3 scFv, several mutations; anti-TROP2 (F108A) HC) (bispecific antibody)
light: B3 light
heavy: not shown
notes: as for B6

How the values were obtained:
TCE-4 = target: T1, TCE-4; experiment: competition ELISA, peptide titrated vs TCE binding to captured CD3
T1 construct: anti-CD3 scFv H101A; anti-TROP2 Fab wt; also called 3076

TCE-6 = target: T2, TCE-6; experiment: as above
T2 construct: anti-CD3 scFv N103A; anti-TROP2 Fab wt; also called 3078

TCE-15 = target: T3, TCE-15; experiment: as above
T3 construct: anti-CD3 scFv W112A; anti-TROP2 Fab wt; also called 3087

TCE-1 = target: T4, TCE-1; experiment: competition ELISA: peptide titrated and pre-incubated with a constant concentration of TCE-1; TCE-1 bound to plate-captured biotinylated CD3 is detected (blocked ligand: CD3)
T4 construct: anti-CD3 scFv wt fused to anti-TROP2 Fab HC wt

TCE-3 = target: T5, TCE-3; experiment: competition ELISA, peptide titrated vs TCE binding to captured CD3
T5 construct: anti-CD3 scFv R100A; anti-TROP2 Fab wt; also called 3075

TCE-30 = target: B3; experiment: as above
TCE-32 = target: B7; experiment: as above
TROP2 [1] = target: T6, TROP2 (human, UniProt P09758 27-274, limits assumed, biotinylated (site not stated)); experiment: ELISA, biotinylated TROP2 captured on neutravidin coated plates, HRP secondary antibody, OD 450 nm
T6 construct: also called TROP2-biotin; tumor-associated calcium signal transducer 2
T6 sequence (looked up): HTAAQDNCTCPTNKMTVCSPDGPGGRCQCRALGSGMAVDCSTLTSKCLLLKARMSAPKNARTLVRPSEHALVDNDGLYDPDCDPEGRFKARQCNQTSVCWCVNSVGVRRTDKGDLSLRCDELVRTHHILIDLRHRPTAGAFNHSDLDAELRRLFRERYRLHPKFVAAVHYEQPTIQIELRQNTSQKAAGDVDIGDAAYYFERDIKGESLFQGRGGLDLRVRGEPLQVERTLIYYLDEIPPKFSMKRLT

TROP2 [2] = target: T6, TROP2; experiment: as above; remark: listed apart in the source
TROP2 [3] = target: T6, TROP2; experiment: as above; remark: listed apart in the source
human CD3ε-biotin [4] = target: T7, human CD3ε-biotin (human, UniProt P07766 23-126, limits assumed, biotinylated (site not stated)); experiment: ELISA, biotinylated CD3ε captured on neutravidin plate, TCE titrated
T7 construct: also called CD3E-bio; CD3E-biotin

human TROP2-biotin [5] = target: T8, human TROP2-biotin (human, UniProt P09758 27-274, limits assumed, biotinylated (site not stated)); experiment: ELISA, biotinylated TROP2 captured on neutravidin plate, TCE titrated; table row head prints EC50 without a unit, unit taken from the axis Log [TCE nM]
T8 construct: also called hTROP2-Biotin; Biotinylated TROP2
T8 sequence (looked up): T6 sequence (looked up)

Cyno CD3 = target: T9, Cyno CD3 (Antigen was biotinylated for capture on the plate (per card); site of biotin and any vendor tag not stated in the passages seen.); experiment: Cyno CD3 binding ELISA, TCE titrated
T9 construct: also called cynomolgus CD3
T9 chain: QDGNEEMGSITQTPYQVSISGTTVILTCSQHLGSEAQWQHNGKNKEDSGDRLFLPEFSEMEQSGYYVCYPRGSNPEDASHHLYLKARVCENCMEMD

human CD3ε-biotin [6] = target: T7, human CD3ε-biotin; experiment: Human CD3 binding ELISA, TCE titrated
human CD3ε-biotin [7] = target: T7, human CD3ε-biotin; experiment: ELISA, biotinylated CD3ε captured on neutravidin plate, TCE titrated; table row head prints EC50 without a unit, unit taken from the axis Log [TCE nM]
CD3ε [8] = target: T10, CD3ε (human, UniProt P07766 23-126, limits assumed, biotinylated (site not stated)); experiment: ELISA, biotinylated CD3 captured on neutravidin coated plates, HRP secondary antibody, OD 450 nm
T10 construct: also called CD3-biotin; CD3E

TROP2 [9] = target: T6, TROP2; experiment: ELISA, biotinylated TROP2 captured on neutravidin coated plates, HRP secondary antibody, OD 450 nm; remark: listed apart in the source
CD3ε [10] = target: T10, CD3ε; experiment: ELISA, biotinylated CD3 captured on neutravidin coated plates, HRP secondary antibody, OD 450 nm; remark: listed apart in the source
human TROP2-biotin [11] = target: T8, human TROP2-biotin; experiment: ELISA, biotinylated TROP2 captured on neutravidin plate, TCE titrated
human CD3ε-biotin [12] = target: T7, human CD3ε-biotin; experiment: BLI (Octet), human CD3-biotin 10 nM on sensor, 50 nM TCE
human TROP2-biotin [13] = target: T8, human TROP2-biotin; experiment: BLI (Octet), human TROP2-biotin 10 nM on sensor, 50 nM TCE
human CD3ε-biotin [14] = target: T7, human CD3ε-biotin; experiment: BLI (Octet), summary table
human CD3ε-biotin [15] = target: T7, human CD3ε-biotin; experiment: ELISA, biotinylated CD3ε on neutravidin plates
CD3ε [16] = target: T10, CD3ε; experiment: ELISA, biotinylated CD3 captured on neutravidin coated plates, HRP secondary antibody, OD 450 nm; remark: listed apart in the source
human CD3ε-biotin [17] = target: T7, human CD3ε-biotin; experiment: ELISA, biotinylated CD3ε captured on neutravidin plate, TCE titrated; remark: listed apart in the source

Q: How did the IC50 (TCE-4) turn out when B1 was run?
A: > 100000 nM

Q: What about the IC50 (TCE-6) of the same binder?
A: 4590 nM

Q: What about the IC50 (TCE-15) of the same binder?
A: > 100000 nM

Q: And the “IC50 (read off the curve)” value (TCE-1)?
A: ~2000 nM

Q: For B2, which IC50 (TCE-3) is on record?
A: > 100000 nM

Q: What about the IC50 (TCE-4) of the same binder?
A: > 100000 nM

Q: What about the “IC50 (read off the curve)” value (TCE-1) of the same binder?
A: ~3000 nM

Q: With QGCGTIADPEPHCW (cysteine pairing not given here; also: biotinylated when captured in ELISA, also called 1363) [Peptide-1] as the binder, how does the IC50 (TCE-3) read?
A: > 100000 nM

Q: What about the IC50 (TCE-6) of the same binder?
A: > 100000 nM

Q: What about the IC50 (TCE-15) of the same binder?
A: > 100000 nM

Q: For YLCGPDADETLACY (cysteine pairing not given here; also: biotinylated when captured in ELISA) [Peptide-12], which IC50 (TCE-30) is on record?
A: > 100000 nM

Q: And the IC50 (TCE-32)?
A: > 100000 nM

Q: B3 was tested. Which “EC50 (read off the curve)” value (TROP2 [1]) did it give?
A: ~2 nM

Q: Which “EC50 (read off the curve)” value (TROP2 [2]) does the source give for B4 here?
A: ~2 nM

Q: What about the “EC50 (read off the curve)” value (TROP2 [3]) of the same binder?
A: ~0.9 nM

Q: B5 was tested. Which EC50 (human CD3ε-biotin [4]) did it give?
A: 0.595 nM

Q: What about the EC50 (human TROP2-biotin [5]) of the same binder?
A: 1.38 nM

Q: Which results are given for B6?
A: EC50 (Cyno CD3): 0.482 nM; EC50 (human CD3ε-biotin [6]): 0.531 nM; EC50 (human CD3ε-biotin [7]): 0.938 nM

Q: B7 was tested. Which “EC50 (read off the curve)” value (CD3ε [8]) did it give?
A: ~0.6 nM

Q: And the “EC50 (read off the curve)” value (TROP2 [9])?
A: ~0.7 nM

Q: For B8, which “EC50 (read off the curve)” value (CD3ε [10]) is on record?
A: ~0.6 nM

Q: And the “EC50 (read off the curve)” value (TROP2 [2])?
A: ~2 nM

Q: For B9, which “EC50 (read off the curve)” value (TROP2 [9]) is on record?
A: ~0.7 nM

Q: B10 was tested. Which EC50 (Cyno CD3) did it give?
A: 0.671 nM

Q: And the EC50 (human CD3ε-biotin [6])?
A: 0.761 nM

Q: What about the EC50 (human TROP2-biotin [11]) of the same binder?
A: 1.02 nM

Q: Which results are given for B11?
A: Kd (human CD3ε-biotin [12]): 0.467 nM; Kd (human TROP2-biotin [13]): 1.22 nM

Q: B12 was tested. Which “CD3 t1/2” value (human CD3ε-biotin [14]) did it give?
A: 39 s

Q: What about the EC50 (human CD3ε-biotin [15]) of the same binder?
A: 0.6 nM

Q: Which “EC50 (read off the curve)” value (CD3ε [16]) does the source give for B13 here?
A: ~0.6 nM

Q: What about the “EC50 (read off the curve)” value (TROP2 [1]) of the same binder?
A: ~0.7 nM

Q: And the EC50 (human TROP2-biotin [5])?
A: 0.893 nM

Q: For B14, which EC50 (human CD3ε-biotin [4]) is on record?
A: 1.09 nM

Q: Which EC50 (Cyno CD3) does the source give for B15 here?
A: 0.354 nM

Q: What about the EC50 (human CD3ε-biotin [6]) of the same binder?
A: 0.382 nM

Q: And the EC50 (human CD3ε-biotin [17])?
A: 0.356 nM

Q: What about the EC50 (human CD3ε-biotin [4]) of the same binder?
A: 0.376 nM
